Laboratory results: paper PMC8428401

Molecular target: AAVhum.8 capsid (adeno-associated virus 8 (nonhuman primate isolate)) (UniProt Q8JQF8)
Assay: cryo-EM structure; purified AAVhum.8 vectors vitrified on Quantifoil grids; Titan Krios 300 kV; capsid reconstructed in cisTEM; 60-mer VP3 model refined against the map

AAVhum.8 capsid (from UniProt Q8JQF8 218-738) (complex)
stoichiometry N: 60
